Source: patent US7432070B2, “Homogenous assay for enzymatic activity” (Pierce Biotechnology, Inc., priority 2003, dated 2008)
Non-standard residues stand in square brackets, D forms with d. No end group written: not given here. pS = N[C@@H](COP(=O)(O)O)C(=O)O; Nva = CCC[C@H](N)C(=O)O

How the values were obtained:
Calpain 1 = molecular target: T1, Calpain 1 (Homo sapiens, UniProt P07384); assay: Km determination for Calpain 1 using the protease assay; assay type: biochemical; conditions: substrate at 0.078, 0.15, 0.31 and 0.62 μM, 13.15 U/ml Calpain 1, 5 minutes, room temperature, N=3; read-out: Km of labeled peptide substrate for Calpain 1
T1 construct: Calpain 1 from human erythrocytes; purchased Calbiochem; host or cells: human erythrocytes
T1 sequence (P07384 1-714): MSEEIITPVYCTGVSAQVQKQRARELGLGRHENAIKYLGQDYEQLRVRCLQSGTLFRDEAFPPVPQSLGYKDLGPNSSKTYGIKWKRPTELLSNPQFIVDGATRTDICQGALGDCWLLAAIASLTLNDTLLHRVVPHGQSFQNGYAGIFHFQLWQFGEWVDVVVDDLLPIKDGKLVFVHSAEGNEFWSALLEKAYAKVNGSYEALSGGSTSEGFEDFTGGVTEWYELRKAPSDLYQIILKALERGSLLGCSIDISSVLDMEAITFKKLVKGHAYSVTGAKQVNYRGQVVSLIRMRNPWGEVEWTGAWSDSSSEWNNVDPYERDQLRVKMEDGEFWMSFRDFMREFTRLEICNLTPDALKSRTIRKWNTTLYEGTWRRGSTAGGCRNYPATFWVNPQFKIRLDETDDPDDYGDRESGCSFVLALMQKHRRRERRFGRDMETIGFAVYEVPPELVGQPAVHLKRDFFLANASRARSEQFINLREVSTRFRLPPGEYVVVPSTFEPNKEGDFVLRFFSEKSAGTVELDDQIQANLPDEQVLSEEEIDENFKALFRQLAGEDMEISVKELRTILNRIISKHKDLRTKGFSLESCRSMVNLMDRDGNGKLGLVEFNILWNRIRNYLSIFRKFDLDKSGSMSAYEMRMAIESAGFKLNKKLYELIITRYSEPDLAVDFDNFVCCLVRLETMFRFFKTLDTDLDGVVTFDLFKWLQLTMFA
T1 sequence (P04632 1-268 partner): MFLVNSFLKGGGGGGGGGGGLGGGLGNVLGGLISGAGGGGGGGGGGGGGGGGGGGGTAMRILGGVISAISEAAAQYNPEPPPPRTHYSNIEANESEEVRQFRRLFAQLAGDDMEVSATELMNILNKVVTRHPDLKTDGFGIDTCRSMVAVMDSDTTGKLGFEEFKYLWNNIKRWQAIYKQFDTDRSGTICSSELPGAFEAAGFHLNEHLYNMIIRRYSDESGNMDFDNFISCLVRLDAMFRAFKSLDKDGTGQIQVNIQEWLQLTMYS
Experimental: (§1) Pepsin A was purchased from Sigma. TPCK Trypsin was obtained from Pierce Biotechnology.
Calpain 1 Lissamine rhodamine-labeled peptide substrate (Dye-[…] PRDpSA) (SEQ. ID NO 3) at 0.078, 0.15, 0.31 and 0.62 μM were digested with 13.15 U/ml Calpain 1. The Lissamine rhodamine-labeled peptide was prepared in 25 mM Tris, 150 mM NaCl pH 7.5, 10 mM CaCl2, and Calpain 1 was prepared in 25 mM Tris, 150 mM NaCl pH 7.5. […] N=3.

MMP-3 = molecular target: T2, MMP-3 (Homo sapiens, UniProt P08254); assay: Km determination for MMP-3 using the protease assay; assay type: biochemical; conditions: substrate at 1, 2, 5 and 10 μM, 0.88 mU/ml MMP-3, 5 minutes, room temperature, N=3; read-out: Km of labeled peptide substrate for MMP-3
T2 construct: Recombinant MMP-3 catalytic subunit; purchased Calbiochem
T2 sequence (P08254 100-272 limits assumed, species assumed): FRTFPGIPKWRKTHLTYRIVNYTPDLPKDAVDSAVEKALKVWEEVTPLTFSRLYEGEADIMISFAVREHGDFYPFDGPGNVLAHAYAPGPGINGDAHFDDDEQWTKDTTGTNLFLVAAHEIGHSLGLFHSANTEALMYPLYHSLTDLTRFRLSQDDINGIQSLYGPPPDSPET
From the text: as §1

Row | Km (Calpain 1) | Km (MMP-3) | Substance
1 | 0.17 ± 0.01 µM | – | Dye-QQQEVYGMM PRDpSA: Calpain 1 Lissamine rhodamine-labeled peptide substrate, label at the N-terminus ({Lissamine rhodamine}-QQQEVYGMMPRD[pS]A)
2 | – | 1.44 ± 0.15 µM | Dye-RPKPVE-Norvaline-WRKpSA: MMP-3 Lissamine rhodamine-labeled peptide substrate, label at the N-terminus ({Lissamine rhodamine}-RPKPVE[Nva]WRK[pS]A)
